PMC5557676, “Structural Characterization of Acidic M17 Leucine Aminopeptidases from the TriTryps and Evaluation of Their Role in Nutrient Starvation in Trypanosoma brucei” (mSphere, 2017)
Where “and” joins values, the source holds several entries; their conditions need not be identical. Equal entries are not always repeated.

What was measured:
[1] = biological target: Leishmania major acidic M17 leucine aminopeptidase (LmLAP-A) (Leishmania major (Friedlin)); assay: SEC-MALS; SEC-MALLS on Superdex 200 10/300; 10 mM Tris pH 8.0, 200 mM NaCl, 1 mM DTT; 0.1, 0.5, 1.0 and 3.0 mg/ml (TbLAP-A also 5 mg/ml), incubated at least 3 h at room temperature
[2] = biological target: Leishmania major acidic M17 leucine aminopeptidase (LmLAP-A) (Leishmania major (Friedlin)); assay: crystal structure; crystals grown at 20°C by sitting- and hanging-drop vapor diffusion; apo, holo (Mn2+) and inhibitor-bound forms; homohexamer in the crystal
[3] = biological target: T1, TbLAP-A (Trypanosoma brucei, UniProt Q385B0); assay: X-ray crystal structure; format: binding; conditions: Mn2+ in both metal sites, active site
T1 construct: gene Tb11.02.4440; full length, E. coli BL21(DE3); N-terminal His6 tag, HRV 3C-cleaved or with a noncleavable His tag; homohexamer; N-terminal domain aa 2-197, C-terminal domain aa 215-521
T1 sequence (Q385B0 1-521): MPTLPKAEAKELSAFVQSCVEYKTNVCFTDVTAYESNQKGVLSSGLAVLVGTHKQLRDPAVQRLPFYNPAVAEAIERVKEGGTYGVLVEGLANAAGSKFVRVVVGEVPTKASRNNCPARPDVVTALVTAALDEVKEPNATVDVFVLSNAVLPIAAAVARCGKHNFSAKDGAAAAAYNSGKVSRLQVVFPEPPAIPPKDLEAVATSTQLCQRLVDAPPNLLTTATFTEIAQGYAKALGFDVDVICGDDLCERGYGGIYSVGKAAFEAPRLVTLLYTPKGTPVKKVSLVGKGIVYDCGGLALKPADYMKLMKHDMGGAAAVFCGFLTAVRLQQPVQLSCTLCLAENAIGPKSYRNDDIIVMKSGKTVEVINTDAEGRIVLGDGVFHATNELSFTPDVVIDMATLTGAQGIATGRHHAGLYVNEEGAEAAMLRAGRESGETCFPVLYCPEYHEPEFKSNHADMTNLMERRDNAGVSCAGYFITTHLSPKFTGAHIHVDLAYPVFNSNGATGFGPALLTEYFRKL

[4] = biological target: Trypanosoma brucei acidic M17 leucine aminopeptidase (TbLAP-A) (Trypanosoma brucei (Lister427)); assay: SEC-MALS; SEC-MALLS on Superdex 200 10/300; 10 mM Tris pH 8.0, 200 mM NaCl, 1 mM DTT; 0.1, 0.5, 1.0 and 3.0 mg/ml (TbLAP-A also 5 mg/ml), incubated at least 3 h at room temperature
[5] = biological target: Trypanosoma brucei acidic M17 leucine aminopeptidase (TbLAP-A) (Trypanosoma brucei (Lister427)); assay: as above; remark: listed apart in the source
[6] = biological target: Trypanosoma brucei acidic M17 leucine aminopeptidase (TbLAP-A) (Trypanosoma brucei (Lister427)); assay: crystal structure; crystals grown at 20°C by sitting- and hanging-drop vapor diffusion; apo, holo (Mn2+) and inhibitor-bound forms; homohexamer in the crystal
[7] = biological target: T1, TbLAP-A; assay: native gel zymography, AMC fluorescence; format: biochemical; conditions: 7.5 µM substrate, 50 mM Tris pH 8.0, 100 mM KCl, 1 mM MnCl2, 37 °C, 10 min
[8] = biological target: the molecule itself; assay: SEC-MALS; SEC-MALLS on Superdex 200 10/300; 10 mM Tris pH 8.0, 200 mM NaCl, 1 mM DTT; 0.1, 0.5, 1.0 and 3.0 mg/ml (TbLAP-A also 5 mg/ml), incubated at least 3 h at room temperature
[9] = biological target: the molecule itself; assay: crystal structure; crystals grown at 20°C by sitting- and hanging-drop vapor diffusion; apo, holo (Mn2+) and inhibitor-bound forms; homohexamer in the crystal

Leishmania major acidic M17 leucine aminopeptidase (LmLAP-A) (enzyme)
stoichiometry N [1]: 6 and 3 | stoichiometry N [2]: 6

CCCCC[C@H](CC(=O)NO)C(=O)N[C@H](C(=O)N1CCC[C@H]1CO)C(C)C [actinonin]
X-ray crystal structure ([3]; less than full occupancy, six chains): The TbLAP-A--actinonin complex had six molecules in the asymmetric unit

CC(C)C[C@H](NC(=O)[C@@H](O)[C@H](N)Cc1ccccc1)C(=O)O [bestatin]
X-ray crystal structure ([3]; bicarbonate bound, 12 chains): TbLAP-A was cocrystallized with the inhibitor bestatin.

Trypanosoma brucei acidic M17 leucine aminopeptidase (TbLAP-A) (enzyme)
stoichiometry N [4]: 3 | stoichiometry N [5]: 6 | stoichiometry N [6]: 6

Cc1cc(=O)oc2cc(NC(=O)[C@@H](N)CC(C)C)ccc12 [Leu-AMC]
native gel zymography, AMC fluorescence [7]: All three LAP-As were active against Leu-AMC

B1: Trypanosoma cruzi acidic M17 leucine aminopeptidase (TcLAP-A) (enzyme)
chain: MNRPPATDSGASEFVRSCVNFKTNVEFTDVDAYKKTHTAGLASTFVVILGTHAQLREDALKELPFYCPAVAEAIQRVKKGETYAVLAEGVKNEANERFVRVLVGEVPSEASRTNCSARPDVVVSLLSAALEEIKGPETKVDVFVCSTAALAIAVAAARSAKRNFTAKEGLAARGYCDNCVRLTVVFPTAPNPSPSELVVVATSTQLCQRLVDAPTNLLNTATFAEVAQSYAKELGCAVDVICGEELRERGYGGIYSVGKCAAEAPRLVTLSYKPKDETRKKVALVGKGIVYDSGGLSLKPTNFMTGMKRDMGGAAAVFCGFLTAVRLQMPIELSCTLCLAENAIGPDAYRNDDILTLKSGKTVEVNNTDAEGRLVLGDGVFHATHEISFKPDVLVDMATLTGAQGIATGHRHAGIFVNDEEEELSFLKAGRVSGETCFPVLYCPEYHVTEFRSPVADMRNSVKQVNNASVSCAGHFVANHLSPDFKGKHIHVDMAFPAFENDKATGFGPALLMEYLRNLR
stoichiometry N [8]: 3 | stoichiometry N [9]: 6
